Test results: paper PMC3376392 (Nature, 2012)

Assays:
NPR3 = molecular target: T1, NPR3 (Arabidopsis thaliana, UniProt Q8L746); test: [3H]-SA binding
T1 sequence (Q8L746 1-586): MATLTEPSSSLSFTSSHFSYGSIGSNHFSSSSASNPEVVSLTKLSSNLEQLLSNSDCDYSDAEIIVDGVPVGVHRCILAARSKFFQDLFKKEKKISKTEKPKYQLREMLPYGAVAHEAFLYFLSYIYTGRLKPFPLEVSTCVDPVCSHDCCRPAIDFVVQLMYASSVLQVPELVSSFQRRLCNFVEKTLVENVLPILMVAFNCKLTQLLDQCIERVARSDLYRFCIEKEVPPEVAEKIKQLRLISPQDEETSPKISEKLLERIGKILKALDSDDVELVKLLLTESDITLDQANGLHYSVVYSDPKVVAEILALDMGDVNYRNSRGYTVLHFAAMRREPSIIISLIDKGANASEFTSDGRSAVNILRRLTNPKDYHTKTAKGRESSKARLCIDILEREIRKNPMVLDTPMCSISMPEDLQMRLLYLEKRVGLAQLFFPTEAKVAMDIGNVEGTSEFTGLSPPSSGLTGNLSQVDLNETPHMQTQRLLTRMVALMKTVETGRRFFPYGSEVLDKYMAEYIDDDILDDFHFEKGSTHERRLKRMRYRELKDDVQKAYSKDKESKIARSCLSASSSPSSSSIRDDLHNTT

His-MBP-NPR1 = molecular target: T2, His-MBP-NPR1 (Arabidopsis thaliana, UniProt P93002 1-593); test: pull-down
T2 sequence: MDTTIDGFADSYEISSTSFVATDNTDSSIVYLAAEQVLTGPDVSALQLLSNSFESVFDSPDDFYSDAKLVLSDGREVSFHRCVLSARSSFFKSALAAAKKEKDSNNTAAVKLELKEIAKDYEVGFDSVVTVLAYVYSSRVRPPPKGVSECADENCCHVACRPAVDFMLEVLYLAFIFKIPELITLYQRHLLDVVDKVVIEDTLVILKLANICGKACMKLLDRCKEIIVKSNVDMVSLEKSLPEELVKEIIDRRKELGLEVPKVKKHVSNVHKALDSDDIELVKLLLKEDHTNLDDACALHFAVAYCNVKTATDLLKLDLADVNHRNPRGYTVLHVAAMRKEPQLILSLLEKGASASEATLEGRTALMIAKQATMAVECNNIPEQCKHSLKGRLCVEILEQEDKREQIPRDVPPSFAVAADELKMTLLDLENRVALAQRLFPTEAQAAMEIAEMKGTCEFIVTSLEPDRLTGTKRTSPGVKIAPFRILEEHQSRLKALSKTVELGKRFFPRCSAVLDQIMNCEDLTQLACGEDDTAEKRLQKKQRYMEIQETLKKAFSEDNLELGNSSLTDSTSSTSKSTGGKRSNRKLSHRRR

SEC = molecular target: the molecule itself; test: SEC

## O=C(O)c1ccccc1O [SA, Salicylic acid]
NPR3
  Kd: 981 nM

B1: GST-NPR4 (natural protein)
chain: MAATAIEPSSSISFTSSHLSNPSPVVTTYHSAANLEELSSNLEQLLTNPDCDYTDAEIIIEEEANPVSVHRCVLAARSKFFLDLFKKDKDSSEKKPKYQMKDLLPYGNVGREAFLHFLSYIYTGRLKPFPIEVSTCVDSVCAHDSCKPAIDFAVELMYASFVFQIPDLVSSFQRKLRNYVEKSLVENVLPILLVAFHCDLTQLLDQCIERVARSDLDRFCIEKELPLEVLEKIKQLRVKSVNIPEVEDKSIERTGKVLKALDSDDVELVKLLLTESDITLDQANGLHYAVAYSDPKVVTQVLDLDMADVNFRNSRGYTVLHIAAMRREPTIIIPLIQKGANASDFTFDGRSAVNICRRLTRPKDYHTKTSRKEPSKYRLCIDILEREIRRNPLVSGDTPTCSHSMPEDLQMRLLYLEKRVGLAQLFFPAEANVAMDVANVEGTSECTGLLTPPPSNDTTENLGKVDLNETPYVQTKRMLTRMKALMKTVETGRRYFPSCYEVLDKYMDQYMDEEIPDMSYPEKGTVKERRQKRMRYNELKNDVKKAYSKDKVARSCLSSSSPASSLREALENPT
His-MBP-NPR1
  binding result: binds

B2: purified recombinant NPR4 protein (natural protein)
chain: B1 chain
SEC
  stoichiometry N: ~4
